Reference: article PMC8887127

T1: GST-BEND3-BD4 (gel shift construct) (Homo sapiens, UniProt Q5T5X7 546-828)
T1 sequence: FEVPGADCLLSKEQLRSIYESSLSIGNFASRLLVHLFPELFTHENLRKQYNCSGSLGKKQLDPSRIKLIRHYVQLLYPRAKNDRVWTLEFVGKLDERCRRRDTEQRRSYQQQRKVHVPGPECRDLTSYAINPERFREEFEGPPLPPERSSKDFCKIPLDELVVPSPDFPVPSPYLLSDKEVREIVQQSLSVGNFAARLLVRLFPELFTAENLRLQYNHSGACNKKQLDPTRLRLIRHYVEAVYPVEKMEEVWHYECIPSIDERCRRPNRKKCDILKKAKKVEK

T2: BEND3-BD4 (crystal construct) (Homo sapiens, UniProt Q5T5X7 715-828)
T2 sequence: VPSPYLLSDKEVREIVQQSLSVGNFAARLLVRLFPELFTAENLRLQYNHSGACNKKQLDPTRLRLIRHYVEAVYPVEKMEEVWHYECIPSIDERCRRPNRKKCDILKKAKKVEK


How the values were obtained:
[1] = molecular target: T1, GST-BEND3-BD4 (gel shift construct); experiment: EMSA
[2] = molecular target: T2, BEND3-BD4 (crystal construct); experiment: X-ray crystallography

Binder | binding result [1] | binding result [2]
wild-type BD4 probe (dsDNA) DNA 1: CTAAACACCCACGCGCCGTGGGTTGTCTT DNA 2: AAGACAACCCACGGCGCGTGGGTGTTTAG | binds | 
mutant BD4 probe (dsDNA) DNA 1: CTAAACCTTTCTACGCTAAAACCTGTCTT DNA 2: AAGACAGGTTTTAGCGTAGAAAGGTTTAG | no binding | 
13-mer BD4 target duplex (dsDNA) DNA 1: GGACCCACGCAGC DNA 2: GGCTGCGTGGGTC |  | binds
